Laboratory results as given in patent US20070167369A1, “Novel use of isolated polypeptide comprising four FAS-1 domains, EM1 domain and RGD motif” (KYUNGPOOK NATIONAL UNIVERSITY INDUSTRY-ACADEMIC COOPERATION …, priority 2004, published 2007).

Key:
HUVECs [1] = assay: Apoptosis by annexin V staining/FACS, endothelial cells (Example 7-1); assay type: cell-based, human; details: 48 hours
Method: Annexin V is a protein binding to calcium-dependent phospholipid, and known to have a strong affinity for phosphatidylserine such that apoptosis can be assayed. For this reason, the present inventors performed a test using an annexin V staining kit (Santa Cruz Biotechnology Inc.).
Each of human umbilical vein endothelial cells (HUVECs) and melanoma cells (B16F10) was suspended in medium at a density of 5×10^5 cells/ml, added to each well of […] and incubated at 37° C. overnight. On the next day, the cells were washed one time with PBS buffer, then added with serum-free medium and incubated at 37° C. for 24 hours. 0.2% FBS-containing fresh medium was treated with the fas-1 domain (βig-h3 D-IV) prepared in Example 1, at various concentrations, then added to each well of the plate and incubated at 37° C. for 48 hours. A negative control was added with PBS, a positive control was incubated with TNF-α or Vitamin C, which are known to induce the apoptosis of endothelial cells and melanoma cells. FITC (fluorescein isothiocyanate)-conjugated annexin V antibodies were added and allowed to react at 4° C. for one hour. After completion of the reaction, unbound annexin V antibodies were removed with PBS buffer, and the apoptosis of the cells was analyzed using FACS (BD Biosciences).

[2] = system: tumors derived from fas-1/B16F10 cells; assay: Growth of tumors derived from fas-1-overexpressing melanoma cells (Example 10-2); assay type: in vivo, mice; details: fas-1 domain overexpressed in the implanted B16F10 cells
Method: Each of the fas-1-overexpressing melanoma cells (fas-1/B16F10) and the control cells (pLNCX/B16F10) was suspended in medium at a density of 1×10^7 cells/ml. 0.1 ml of each of the cell suspensions was injected subcutaneously to 5-6 week old mice (Hyochang scientific company, Korea) to make a tumor model. Since the diameter of the tumor reached about 3 mm, the body weight and tumor size of the mice were checked at intervals of three days. The longest diameter and the shortest diameter of the tumor were measured with slide calipers, and the measured values were substituted in the following equation (1) to calculate the volume of the tumor. Volume of tumor=a×b^2/2 [Equation 1]
Wherein, ‘a’ is the shortest diameter of the tumor, and ‘b’ is the longest diameter of the tumor.

HUVECs [3] = assay: Inhibition of βig-h3-mediated endothelial cell adhesion (Example 4-1); assay type: cell-based, human
Method: HUVECs were suspended in medium at a density of 3×10^5 cells/ml, and 0.1 ml of the cell suspension was added with the fourth fas-1 domain of βig-h3 (βig-h3 D-IV) prepared in Example 1, at concentrations of 5 μM, 10 μM and 20 μM, respectively, and preincubated at 37° C. for 30 minutes. The preincubated cells were added to each well of the 96-well plate precoated with a recombinant βig-h3 His-1-b protein. Then, the cells were tested in the same manner as in Example 2. A control was treated with 2% BSA.

β5/HEK293 cells = assay: Apoptosis by annexin V staining, β5/HEK293 cells expressing αvβ5 integrin (Example 8); assay type: cell-based; details: annexin V FACS
Method: (§1) To identify an integrin that mediates the induction of endothelial cell apoptosis by the fas-1 domain, the present inventors performed a test using HEK293 cells (β3/HEK293 and β5/HEK293) which had been transfected such as to express αvβ3 integrin or αvβ5 integrin.
Meanwhile, a β5/HEK293 cell that expresses αvβ5 integrin was prepared in the following manner. In order to construct a human β5 integrin expression vector, RT-PCR using human placenta poly(A)^+ RNA as a template was first performed to prepare a 2.8-kb β5 cDNA (Suzuki et al., Proc. Natl. Acad. Sci. USA, 87:5354-5358, 1990). The amplified β5 cDNA was digested with EcoRI, and then cloned into a pcDNA3 vector (Invitrogen). The resulting vector was named “β5/pcDNA3”. Thereafter, 1 μg of the β5/pcDNA3 vector was introduced into HEK293 cells (ATCC, catalog No. CRL 1573) by lipofectamin (Gibco). A stable transfected cell was screened using 1 mg/ml of G418. The cell transfected with the β5/pcDNA3 vector was named “β5/HEK293”.
(§2) pc/HEK293 cells, β3/HEK293 cells and β5/HEK293 cells were stained with annexin V to identify an integrin that mediates the induction of endothelial cell apoptosis by the fas-1 domain. Each of the cells was suspended in medium at a density of 5×10^5 cells/ml, added to each well of 6-well plated and incubated at 37° C. overnight. Following this, a test was performed in the same manner as in Example 7-1 above.

β3/HEK293 cells = assay: Apoptosis by annexin V staining, β3/HEK293 cells expressing αvβ3 integrin (Example 8); assay type: cell-based; details: annexin V FACS
Method: as §1
For this purpose, a β3/HEK293 cell that expresses αvβ3 integrin was prepared in the following manner. In order to construct a human β3 integrin expression vector, RT-PCR using human placenta poly(A)^+ RNA as a template was first performed to produce 2.4-kb β3 cDNA (Chandrika, S. K. et al., J. Biol. Chem., 272:16390-16397, 1997). The amplified β3 cDNA was digested with HindIII/XbaI, and then cloned into a pcDNA3 vector (Invitrogen). The resulting vector was named “β3/pcDNA3”. Thereafter, 1 μg of the β3/pcDNA3 vector was introduced into HEK293 cells (ATCC, catalog No. CRL 1573) by lipofectamin (Gibco). As the vector contains a G418 selection marker, a stable transfected cell was screened using 1 mg/ml of G418. The cell transfected with the β3/pcDNA3 vector was named “β3/HEK293”.
as §2, with “Following this, a test was performed in the same manner as in Example 7-1 above.” left out

HUVECs [4] = assay: Adhesion of endothelial cells to fibronectin, vitronectin or collagen (Example 5-1); assay type: cell-based, human
Method: Flat-bottomed 96-well ELISA (enzyme-linked immunosorbent assay) plates (Costar, Corning Inc., NY) were incubated overnight at 4° C. with 10 μg/ml of fibronectin (Promega Inc., USA), vitronectin (Promega Inc., USA) and collagen, respectively, to coat the well surface. Then, a test was performed in the same manner as in Example 4-1 above.

pc/HEK293 cells = assay: Apoptosis by annexin V staining, pc/HEK293 control cells (Example 8); assay type: cell-based; details: annexin V FACS
Method: A control cell was transfected with a pcDNA3 vector containing no β3 cDNA or β5 cDNA fragment, and named “pc/HEK293”.
as §2

B1: fas-1 domain: recombinant protein containing the fourth fas-1 domain of human βig-h3 (SEQ ID NO: 64) (protein, listed as Homo sapiens)
chain: MGTVMDVLKGDNRFSMLVAAIQSAGLTETLNREGVYTVFAPTNEAFRALPPRERSRLLGDAKELANILKYHIGDEILVSGGIGALVRLKSLQGDKLEVSLKNNVVSVNKEPVAEPDIMATNGVVHVITNVL
induction of apoptosis of HUVECs (HUVECs [1]): induced the apoptosis of HUVECs in a dose-dependent manner
growth of tumors derived from melanoma cells [2]: inhibits the in vivo growth of tumors derived from the melanoma cells
inhibition of βig-h3-mediated adhesion of endothelial cells (HUVECs [3]; 5 μM): inhibited
inhibitory effect of endothelial cell adhesion compared with YH motif-containing peptide fragment of 18 amino acids (HUVECs [3]; 20 μM fas-1 domain vs 1,000 μM YH peptide): higher
inhibition of βig-h3-mediated adhesion of endothelial cells (HUVECs [3]; 5, 10 and 20 μM): inhibited in a dose-dependent manner
induction of apoptosis of β5/HEK293 cells (β5/HEK293 cells): not induced
induction of apoptosis of β3/HEK293 cells (β3/HEK293 cells): induced by the fas-1 domain in a dose-dependent manner
inhibition of adhesion of HUVECs to collagen (HUVECs [4]; plate coated with 10 μg/ml collagen): only partially inhibited
inhibition of adhesion of HUVECs to fibronectin (HUVECs [4]; plate coated with 10 μg/ml fibronectin): completely inhibited
inhibition of adhesion of HUVECs to vitronectin (HUVECs [4]; plate coated with 10 μg/ml vitronectin): completely inhibited
induction of apoptosis of pc/HEK293 cells (pc/HEK293 cells): not induced
